Values quoted from earlier work in article PMC11866755.

Tests used:
Test in all cases: NMR
Asp42 = Asp42 (UniProt position 63, KRGCADNCPKN)
Asp59 = Asp59 (UniProt position 80, VCCSTDKCN--)
Glu17 = Glu17 (UniProt position 38, YKTCPEGKNLC)
His4 = His4 (UniProt position 25, YTLKCHNTQLP)
Asp101 = Asp101 (UniProt position 119, KKIVSDGNGMN)
Asp119 = Asp119 (UniProt position 137, RCKGTDVQAWI)
Asp18 = Asp18 (UniProt position 36, KRHGLDNYRGY)
Asp48 = Asp48 (UniProt position 66, TNRNTDGSTDY)
Asp52 = Asp52 (UniProt position 70, TDGSTDYGILQ)
Asp66 = Asp66 (UniProt position 84, RWWCNDGRTPG)
Asp87 = Asp87 (UniProt position 105, ALLSSDITASV)
Glu35 = Glu35 (UniProt position 53, CAAKFESNFNT)
Glu7 = Glu7 (UniProt position 25, VFGRCELAAAM)
His15 = His15 (UniProt position 33, AAMKRHGLDNY)
Asp40 = Asp40 (UniProt position 122, RLLLVDTPETK); details: folded protein, ligand state not stated
Asp77 = Asp77 (UniProt position 159, IEVEFDKGQRT); details: folded protein, ligand state not stated
Asp83 = Asp83 (UniProt position 165, KGQRTDKYGRG); details: folded protein, ligand state not stated
Asp95 = Asp95 (UniProt position 177, AYIYADGKMVN); details: folded protein, ligand state not stated
Glu10 = Glu10 (UniProt position 92, KKLHKEPATLI); details: folded protein, ligand state not stated
Glu101 = Glu101 (UniProt position 183, GKMVNEALVRQ); details: folded protein, ligand state not stated
Glu122 = Glu122 (UniProt position 204, GNNTHEQLLRK); details: folded protein, ligand state not stated
Glu129 = Glu129 (UniProt position 211, LLRKAEAQAKK); details: folded protein, ligand state not stated
Glu135 = Glu135 (UniProt position 217, AQAKKEKLNIW); details: folded protein, ligand state not stated
Glu43 = Glu43 (UniProt position 125, LVDTPETKHPK); details: folded protein, ligand state not stated
Glu52 = Glu52 (UniProt position 134, PKKFNEKYGPE); details: folded protein, ligand state not stated
Glu57 = Glu57 (UniProt position 139, EKYGPEASAFT); details: folded protein, ligand state not stated
Glu67 = Glu67 (UniProt position 149, TKKMVENAKKI); details: folded protein, ligand state not stated
Glu73 = Glu73 (UniProt position 155, NAKKIEVEFDK); details: folded protein, ligand state not stated
Glu75 = Glu75 (UniProt position 157, KKIEVEFDKGQ); details: folded protein, ligand state not stated
His121 = His121 (UniProt position 203, KGNNTHEQLLR); details: folded protein, ligand state not stated
His8 = His8 (UniProt position 90, STKKLHKEPAT); details: folded protein, ligand state not stated
[1] = biological target: Glu2 (position 2, ----GEAEG--); details: free peptide in solution
[2] = biological target: Glu4 (position 4, --GEAEG----); details: free peptide in solution
[3] = biological target: His2 (position 2, ----GHAHG--); details: free peptide in solution
[4] = biological target: His4 (position 4, --GHAHG----); details: free peptide in solution
[5] = biological target: Glu2 (position 2, ----GEAHG--); details: free peptide in solution
[6] = biological target: His4 (position 4, --GEAHG----); details: free peptide in solution
[7] = biological target: Glu4 (position 4, --GHAEG----); details: free peptide in solution
[8] = biological target: His2 (position 2, ----GHAEG--); details: free peptide in solution

In the case of “Cardiotoxin V (cytotoxin 5, CTX A5) (Naja atra (printed as Naja naja atra, Chinese/Taiwan cobra))”, the pKa (Asp42) is listed as 3.2, the pKa (Asp59) is listed as under 2.0 and the pKa (Glu17) is listed as 4.0. The pKa (His4) was 5.5.

For “Hen egg-white lysozyme (HEWL) (Gallus gallus)”, the pKa (Asp101) is listed as 4.5 ±0.1, the pKa (Asp119) is listed as 3.5 ±0.3 and the pKa (Asp18) is listed as 2.8 ±0.3. For the same molecule, the pKa (Asp48) was 1.4 ±0.2, the pKa (Asp52) was 3.6 ±0.3 and the pKa (Asp66) was 1.2 ±0.2. The pKa (Asp87) was 2.2 ±0.1, the pKa (Glu35) was 6.1 ±0.4 and the pKa (Glu7) was 2.6 ±0.2. The pKa (His15) was 5.5 ±0.2.

For “Staphylococcal nuclease Delta+PHS (printed as ΔPHS) (Staphylococcus aureus; G50F;V51N;P117G;H124L;S128A;del44-49)”, the pKa (Asp40) is given as 3.9, the pKa (Asp77) is given as under 2.2 and the pKa (Asp83) is given as under 2.2. The pKa (Asp95) was 2.2, the pKa (Glu10) was 2.8 and the pKa (Glu101) was 3.8. For the same molecule, the pKa (Glu122) was 3.9, the pKa (Glu129) was 3.8 and the pKa (Glu135) was 3.8. The pKa (Glu43) was 4.3, the pKa (Glu52) was 3.9 and the pKa (Glu57) was 3.5. For the same molecule, the pKa (Glu67) was 3.58, the pKa (Glu73) was 3.3 and the pKa (Glu75) was 3.3. For the same molecule, the pKa (His121) was 5.24 and the pKa (His8) was 6.5.

For GEAEG [Pentapeptide GEAEG (synthetic)], the pKa [1] is given as 4.06 and the pKa [2] is given as 4.04.

In the case of GHAHG [Pentapeptide GHAHG (synthetic)], the pKa [3] is listed as 6.23 and the pKa [4] is listed as 6.66.

For GEAHG [Pentapeptide GEAHG (synthetic)], the pKa [5] is given as 3.76 and the pKa [6] is given as 6.59.

For GHAEG [Pentapeptide GHAEG (synthetic)], the pKa [7] is listed as 3.81 and the pKa [8] is listed as 6.14.
